Literature values, collected in patent publication US20030166570A1, “Peptide and its use in the treatment of hyperpigmentation conditions” (priority 2001, published 2003).
Ends that are not written are not given here.

Target: MC-1 receptor (Homo sapiens, UniProt Q01726)
Conditions: rank order; physiologic range for signal transduction

Sequence of MC-1 receptor (Q01726 whole entry): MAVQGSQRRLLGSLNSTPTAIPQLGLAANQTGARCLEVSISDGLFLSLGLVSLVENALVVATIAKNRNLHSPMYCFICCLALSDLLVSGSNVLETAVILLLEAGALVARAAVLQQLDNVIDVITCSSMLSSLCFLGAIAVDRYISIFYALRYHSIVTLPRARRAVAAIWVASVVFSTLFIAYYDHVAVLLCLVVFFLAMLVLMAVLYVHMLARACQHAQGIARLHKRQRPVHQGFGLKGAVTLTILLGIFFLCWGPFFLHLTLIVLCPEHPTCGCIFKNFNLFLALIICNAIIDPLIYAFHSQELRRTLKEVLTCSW

relative affinities for the MC-1 receptor and stimulation of cAMP	Substance
no activity	ACTH 1-10: peptide fragment defined by residues 1-10 of ACTH
ACTH 1-17=α-MSH>ACTH	ACTH: 39-mer polypeptide hormone expressed in skin melanocytes and keratinocytes, derived from POMC (SYSMEHFRWGKPVGKKRRPVKVYPNGAEDESAEAFPLEF-NH2; UniProt P01189 138-176, looked up)
ACTH 1-17=α-MSH>ACTH	Ac-Ser^1-Tyr^2-Ser^3-Met^4-Glu^5-His^6-Phe^7-Arg^8-Trp^9-Gly^10-Lys^11-Pro^12-Val^13-NH2 [α-MSH]
